The text below walks through data of patent US11911507B2, “Liposomes comprising polymer-conjugated lipids and related uses” (Yissum Research Development Company of the Hebrew …, priority 2011, dated 2024).

Data set [1] in a line: Retention of liposome-encapsulated inulin fluorescein in rat circulation after tail vein injection. Type of data set: in vivo. The following applies: rats, blood samples 5 minutes and 28 hours, versus control nanoliposomes (FIG. 6). Here is the method: FIG. 6: Effect of Pol-PLI on stability of liposomes in rat blood (in vivo): InFl-containing Liposomes were injected to the tail vein of rats, and the retention of drug in the circulation was monitored for 28 hour, by determination of the drug level in blood samples taken 5 minutes and 28 hours after injection, and expressed as percent of the initial, injected InFl amount.

A short description of data set [2]: Size stability of liposomes with different polymer-conjugated lipids on heated incubation, dynamic light scattering. Particulars: DMPC liposomes, 55° C., day 1 vs day 17, versus control nanoliposomes.
Method: FIG. 3: Size stability of liposomes with different polymer-conjugated lipids (Po-Ls): Liposomes with or without the indicated Po-L were incubated at 55° C. for 17 days, and the change in their size was monitored using dynamic light scattering. […] DMPC=dimyristoyl phosphatidyl-choline; HyPE=HyPE=Hyaluronic acid (HA)-conjugated Phosphatidyl-ethanolamine (PE); Dex (5)-PE=Dextran (MW 5K)-conjugated PE; Dex(40)=Dextran (MW 40K)-conjugated PE; Heta-PE=Hetastarch (hydroxyethylstarch)-conjugated PE; Hem-PE=Hemaccel (Polygeline)-conjugated PE.
The size of the mixed nano-liposomes was determined by dynamic light scattering.

As to “Haemaccel-Glutaryl-phosphatidyl-ethanolamine [Hem-PE]”, the “release of encapsulated drug from nanoliposomes, in vivo” value in data set [1] is recorded as “markedly slowed down the drug release”. In data set [2], the “nanoliposome size stability (FIG. 3)” value is reported as “more stable nanoliposome size than control nanoliposomes”.
